Columns and labels:
Assay in all cases: SPR
[1] = target: Inverse folding design from the DXP-604 starting point (Table 5, design row 3, the 5th table, row 6)
[2] = target: Inverse folding design from the DXP-604 starting point (Table 5, design row 1, the 5th table, row 4)
[3] = target: Inverse folding design from the DXP-604 starting point (Table 5, design row 7, the 5th table, row 10)
[4] = target: S309
[5] = target: Inverse folding design from the DXP-604 starting point (Table 5, design row 5, the 5th table, row 8)
[6] = target: Inverse folding design from the DXP-604 starting point (Table 5, design row 4, the 5th table, row 7)
[7] = target: Inverse folding design from the DXP-604 starting point (Table 5, design row 2, the 5th table, row 5)
[8] = target: Inverse folding design from the DXP-604 starting point (Table 5, design row 6, the 5th table, row 9)
[9] = target: Efficient evolution design from the S309 starting point (Table 4, design row 1, the 4th table, row 4)
[10] = target: OAS scanning design from the DXP-604 starting point (Table 2, 1st design row, the 2nd table, row 8)
[11] = target: OAS scanning design from the DXP-604 starting point (Table 2, 2nd design row, the 2nd table, row 9)
[12] = target: Efficient evolution design from the S309 starting point (Table 4, design row 3, the 4th table, row 6)
[13] = target: Efficient evolution design from the S309 starting point (Table 4, design row 6, the 4th table, row 9)
[14] = target: SARS-CoV-2 Spike RBD, original (Wuhan) strain (SARS-CoV-2, original Wuhan strain) (UniProt P0DTC2)
[15] = target: Inverse folding design from the LY-CoV1404 starting point (Table 5, design row 2, the 5th table, row 13)
[16] = target: Efficient evolution design from the S309 starting point (Table 4, design row 2, the 4th table, row 5)
[17] = target: DXP-604
[18] = target: Inverse folding design from the LY-CoV1404 starting point (Table 5, design row 1, the 5th table, row 12)
[19] = target: Efficient evolution design from the S309 starting point (Table 4, design row 5, the 4th table, row 8)
[20] = target: BD55–5840

In the case of “SARS-CoV-2 Spike RBD, XBB.1 strain (from UniProt P0DTC2) (domain or fragment)”, the pKD [1] is reported as 5.12 -log10(KD), the pKD [2] is reported as 5.78 -log10(KD) and the pKD [3] is reported as 6.15 -log10(KD). The pKD [4] was 8.93 -log10(KD), the pKD [5] was 5.91 -log10(KD) and the pKD [6] was 5.84 -log10(KD). The pKD [7] was 5.99 -log10(KD), the pKD [8] was 6.37 -log10(KD) and the pKD [9] was 8.7 -log10(KD). The pKD [10] was 5.35 -log10(KD).

For “SARS-CoV-2 Spike RBD, original (Wuhan) strain (from UniProt P0DTC2) (domain or fragment)”, the pKD [11] was 9.38 -log10(KD), the pKD [12] was 8.7 -log10(KD) and the pKD [13] was 8.7 -log10(KD). For the same substance, the pKD [9] was 8.7 -log10(KD) and the pKD [10] was 9.07 -log10(KD).

In the case of DXP-604 (antibody), the pKD [14] is reported as 9.67 -log10(KD).

With “SARS-CoV-2 Spike RBD, XBB.1.5 strain (from UniProt P0DTC2) (domain or fragment)” the pKD [15] was 4.88 -log10(KD), the pKD [16] was 8.93 -log10(KD) and the pKD [17] was 5.84 -log10(KD). The pKD [18] was 4.87 -log10(KD), the pKD [19] was 9.12 -log10(KD) and the pKD [20] was 6.14 -log10(KD). For the same substance, the pKD [9] was 8.89 -log10(KD) and the pKD [10] was 5.87 -log10(KD).
